# According to patent US9969998B2, “Compositions of adenosine deaminase-2 (ADA2), variants thereof and methods of using same” (Halozyme, Inc., priority 2014, dated 2018):
# Positions count from the first letter of the chain named. Names may count otherwise.
# B1: K375D: ADA2 variant SEQ ID NO:23 (protein)
# chain: IDETRAHLLLKEKMMRLGGRLVLNTKEELANERLMTLKIAEMKEAMRTLIFPPSMHFFQAKHLIERSQVFNILRMMPKGAALHLHDIGIVTMDWLVRNVTYRPHCHICFTPRGIMQFRFAHPTPRPSEKCSKWILLEDYRKRVQNVTEFDDSLLRNFTLVTQHPEVIYTNQNVVWSKFETIFFTISGLIHYAPVFRDYVFRSMQEFYEDNVLYMEIRARLLPVYELSGEHHDEEWSVKTYQEVAQKFVETHPEFIGIKIIYSDHRSKDVAVIAESIRMAMGLRIKFPTVVAGFDLVGHEDTGHSLHDYKEALMIPAKDGVKLPYFFHAGETDWQGTSIDRNILDALMLNTTRIGHGFALSKHPAVRTYSWKDDIPIEVCPISNQVLKLVSDLRNHPVATLMATGHPMVISSDDPAMFGAKGLSYDFYEVFMGIGGMKADLRTLKQLAMNSIKYSTLLESEKNTFMEIWKKRWDKFIADVATK
# modifications: human ADA2 K372D, mature numbering
# B2: K375E: ADA2 variant SEQ ID NO:24 (protein)
# chain: B1 chain with D372E
# modifications: human ADA2 K372E, mature numbering
# B3: R23A/K374A: ADA2 variant SEQ ID NO:57 (protein)
# chain: B1 chain with R20A, K371A, D372K
# modifications: human ADA2 R20A/K371A, mature numbering
# B4: R369E: ADA2 variant SEQ ID NO:33 (protein)
# chain: B1 chain with R366E, D372K
# modifications: human ADA2 R366E, mature numbering
# B5: K14A/R23A/K374A: ADA2 variant SEQ ID NO:56 (protein)
# chain: B1 chain with K11A, R20A, K371A, D372K
# modifications: human ADA2 K11A/R20A/K371A, mature numbering
# B6: K14A/K374A: ADA2 variant SEQ ID NO:58 (protein)
# chain: B1 chain with K11A, K371A, D372K
# modifications: human ADA2 K11A/K371A, mature numbering
# B7: K455E: ADA2 variant SEQ ID NO:27 (protein)
# chain: B1 chain with D372K, K452E
# modifications: human ADA2 K452E, mature numbering
# What was measured:
# [1] = Heparin binding ELISA (heparin coated microtiter plate); settings: 3 μM protein
# Protocol: A 96-well plate was coated with 100 μL of 200 μg/mL heparin sodium salt (Calibochem, EMD Milipore, Billerica, Mass.; Cat. No. 375095) in Na2CO3 buffer (pH 9.6), overnight at 4° C. The wells were blocked with 5% milk in PBS, and washed 6 times with PBS. 3 μM of select rHuADA2 variants (see Table 20), WT rHuADA2 (positive control) and WT rHuADA1 (negative control) were added to the wells individually and incubated for 2 hours at room temperature, followed by washing 6 times with PBS. 100 μL of 1:1000 diluted horseradish peroxidase (HRP)-anti-FLAG antibody (Abcam, Cambridge, UK; Cat. No. Ab1238) was added to the wells to detect binding and incubated at room temperature for 1 hour. The ELISA reactions were developed by adding the 3,3′,5,5′-Tetramethylbenzidine (TMB) substrate solution (Pierce, Thermo Fisher Scientific, Rockford, Ill.) according the manufacturer's instructions and reading the optical density at 450 nm (OD450) on a plate reader.
# [2] = Heparin-affinity chromatography (heparin-Sepharose, SDS-PAGE); assay type: binding; settings: for Heparin Column Binding: compared to WT rHuADA2, 0.3 mg/mL protein
# Protocol: To assess binding of variants to heparin, heparin-affinity chromatography was employed to identify heparin-bound variants. Heparin binding was tested by mixing 35 μL of rHuADA2 WT and variants with 20 μL heparin-Sepharose™ resin (GE Healthcare, Pittsburgh, Pa.; Cat. No. 17-0998-01), followed by incubating at room temperature for 30 min. The mixture was then centrifuged through a 0.22 μm centrifuge filter and the flow-through, containing the unbound protein, was collected for analysis on an SDS-PAGE gel. 35 μL of 1.5 M NaCl was added to heparin-Sepharose resin and incubated at room temperature (RT) for 10 min to elute the remaining heparin-bound protein from the heparin-Sepharose. Samples of purified WT rHuADA2 and tested variants, before and after mixing with the heparin-Sepharose resin, were analyzed by SDS-PAGE to compare the degree of heparin binding.
# [3] = Adenosine deaminase (ADA) enzymatic activity assay kit; assay type: biochemical; settings: for adenosine deaminase activity mU/mL / ΔA/min, adenosine deaminase activity: protein diluted to 5 μg/mL, serially diluted 2 fold (Table 21); for % activity vs. WT: relative to rHuADA2 WT (Table 21)
Molecule,"Average OD450, heparin binding ELISA ([1]; Set 1)",heparin binding compared to WT [2],Heparin Column Binding [2],enzymatic activity relative to WT rHuADA2 [3],adenosine deaminase activity mU/mL [3],"ΔA/min, adenosine deaminase activity [3]",% activity vs. WT [3],"Average OD450, heparin binding ELISA ([1]; Set 2)"
B1,0.2,attenuated heparin binding,Reduced,improved enzymatic activity,123.5 mU/mL,53.7,158.3%,
B2,0.21,attenuated heparin binding,Reduced,improved enzymatic activity,108.1 mU/mL,47,138.6%,
B3,,,Reduced,,117.6 mU/mL,51.1,150.7%,0.17
B4,,attenuated heparin binding,Reduced,improved enzymatic activity,115.9 mU/mL,50.4,148.5%,0.18
B5,,,Reduced,,72.8 mU/mL,31.7,93.3%,
B6,,,Reduced,,78.4 mU/mL,34.1,100.5%,
B7,,attenuated heparin binding,Reduced,improved enzymatic activity,127.3 mU/mL,55.4,163.2%,0.26
